Measured values published in article PMC6264593.

Experiments:
Assay in all cases: SPR; Fcγ receptor affinities (KD) by Surface Plasma Resonance; mAb up to 6.4 µM
mFcγRIII (mouse) = mFcγRIII (mouse) (UniProt P08508)
mFcγRIIb (mouse) = mFcγRIIb (mouse) (UniProt P08101)
mFcγRIV (mouse) = target: mFcγRIV (mouse)
hFcγRI (human) = hFcγRI (human) (UniProt P12314)
hFcγRIIb (human) = hFcγRIIb (human) (UniProt P31994)
hFcγRIIa (human) = hFcγRIIa (human) (UniProt P12318)
hFcγRIIIa (human) = hFcγRIIIa (human) (UniProt P08637)
hFcγRIIIa (human), sequence (P08637 17-254): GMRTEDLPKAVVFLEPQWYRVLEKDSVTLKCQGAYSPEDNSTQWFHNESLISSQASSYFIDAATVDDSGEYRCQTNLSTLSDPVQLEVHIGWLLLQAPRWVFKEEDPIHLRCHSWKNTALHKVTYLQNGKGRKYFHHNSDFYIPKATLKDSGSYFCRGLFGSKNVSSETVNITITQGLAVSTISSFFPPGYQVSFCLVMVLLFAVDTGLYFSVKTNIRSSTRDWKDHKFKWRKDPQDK

mFcγRIIb (mouse), sequence (P08101 30-330): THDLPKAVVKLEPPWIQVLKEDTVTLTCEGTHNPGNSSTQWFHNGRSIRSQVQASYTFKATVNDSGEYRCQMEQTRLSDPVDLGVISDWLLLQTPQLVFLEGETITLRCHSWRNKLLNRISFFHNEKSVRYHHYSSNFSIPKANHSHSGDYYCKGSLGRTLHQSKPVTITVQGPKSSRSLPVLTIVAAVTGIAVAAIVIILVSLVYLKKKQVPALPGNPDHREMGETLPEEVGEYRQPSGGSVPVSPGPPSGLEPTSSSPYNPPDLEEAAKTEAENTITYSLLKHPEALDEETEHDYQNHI
hFcγRIIa (human), sequence (P12318 34-317): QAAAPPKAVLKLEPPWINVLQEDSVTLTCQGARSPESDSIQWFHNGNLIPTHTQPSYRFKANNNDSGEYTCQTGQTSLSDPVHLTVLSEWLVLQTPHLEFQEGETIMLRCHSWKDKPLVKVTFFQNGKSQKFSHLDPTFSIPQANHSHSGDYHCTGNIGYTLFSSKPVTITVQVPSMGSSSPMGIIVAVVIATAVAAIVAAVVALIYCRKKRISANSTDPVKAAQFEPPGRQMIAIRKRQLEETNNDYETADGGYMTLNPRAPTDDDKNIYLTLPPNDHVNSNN
hFcγRIIb (human), sequence (P31994 43-310): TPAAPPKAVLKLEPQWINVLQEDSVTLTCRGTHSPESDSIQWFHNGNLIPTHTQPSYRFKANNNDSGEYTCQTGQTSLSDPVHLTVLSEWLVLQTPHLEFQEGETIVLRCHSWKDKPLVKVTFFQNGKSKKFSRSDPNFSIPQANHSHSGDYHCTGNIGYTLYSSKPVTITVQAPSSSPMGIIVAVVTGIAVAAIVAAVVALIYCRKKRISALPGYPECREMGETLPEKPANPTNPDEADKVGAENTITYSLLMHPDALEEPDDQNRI
hFcγRI (human), sequence (P12314 16-374): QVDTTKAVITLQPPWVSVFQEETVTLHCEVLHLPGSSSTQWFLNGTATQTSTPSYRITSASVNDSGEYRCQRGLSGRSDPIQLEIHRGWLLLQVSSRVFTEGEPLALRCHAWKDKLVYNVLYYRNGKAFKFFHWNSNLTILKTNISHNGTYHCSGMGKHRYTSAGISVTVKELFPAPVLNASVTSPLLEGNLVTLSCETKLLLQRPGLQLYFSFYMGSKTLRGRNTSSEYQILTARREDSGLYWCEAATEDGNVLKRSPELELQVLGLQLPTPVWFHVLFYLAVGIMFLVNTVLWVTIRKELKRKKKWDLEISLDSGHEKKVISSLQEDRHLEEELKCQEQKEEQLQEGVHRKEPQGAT
mFcγRIII (mouse), sequence (P08508 31-261): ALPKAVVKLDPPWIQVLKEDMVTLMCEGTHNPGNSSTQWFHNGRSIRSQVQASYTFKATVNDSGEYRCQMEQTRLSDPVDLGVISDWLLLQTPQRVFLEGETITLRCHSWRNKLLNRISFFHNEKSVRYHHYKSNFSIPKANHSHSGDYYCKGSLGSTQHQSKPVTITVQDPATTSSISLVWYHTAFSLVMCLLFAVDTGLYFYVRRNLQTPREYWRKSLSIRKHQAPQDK
mFcγRIV (mouse), sequence (A0A0B4J1G0 21-249): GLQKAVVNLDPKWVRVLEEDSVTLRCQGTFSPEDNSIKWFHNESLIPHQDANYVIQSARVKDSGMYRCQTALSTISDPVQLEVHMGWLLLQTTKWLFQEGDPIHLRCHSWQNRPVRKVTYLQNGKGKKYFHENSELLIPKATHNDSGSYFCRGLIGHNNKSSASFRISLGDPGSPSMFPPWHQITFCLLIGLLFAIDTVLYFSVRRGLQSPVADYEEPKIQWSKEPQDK

Substance	Kd (mFcγRIII (mouse)) [nM]	Kd (mFcγRIIb (mouse)) [nM]	Kd (mFcγRIV (mouse)) [nM]	Kd (hFcγRI (human)) [nM]	Kd (hFcγRIIb (human)) [nM]	Kd (hFcγRIIa (human)) [nM]	Kd (hFcγRIIIa (human)) [nM]
3D6mIgG2b (antibody)	119	456	22	–	–	–	–
SAR228810 (antibody)	–	–	–	244	1830	2640	–
SAR255952 (antibody)	–	> 4500	–	–	–	–	–
3D6-huIgG1 (antibody)	–	–	–	0.86	2060	794	472
